# Source: IntAct's records for PubMed 17363896
# B1: Actin cytoskeleton-regulatory complex protein SLA1 (Saccharomyces cerevisiae), P32790 (parent)
# chain: MTVFLGIYRAVYAYEPQTPEELAIQEDDLLYLLQKSDIDDWWTVKKRVIGSDSEEPVGLVPSTYIEEAPVLKKVRAIYDYEQVQNADEELTFHENDVFDVFDDKDADWLLVKSTVSNEFGFIPGNYVEPENGSTSKQEQAPAAAEAPAATPAAAPASAAVLPTNFLPPPQHNDRARMMQSKEDQAPDEDEEGPPPAMPARPTATTETTDATAAAVRSRTRLSYSDNDNDDEEDDYYYNSNSNNVGNHEYNTEYHSWNVTEIEGRKKKKAKLSIGNNKINFIPQKGTPHEWSIDKLVSYDNEKKHMFLEFVDPYRSLELHTGNTTTCEEIMNIIGEYKGASRDPGLREVEMASKSKKRGIVQYDFMAESQDELTIKSGDKVYILDDKKSKDWWMCQLVDSGKSGLVPAQFIEPVRDKKHTESTASGIIKSIKKNFTKSPSRSRSRSRSKSNANASWKDDELQNDVVGSAAGKRSRKSSLSSHKKNSSATKDFPNPKKSRLWVDRSGTFKVDAEFIGCAKGKIHLHKANGVKIAVAADKLSNEDLAYVEKITGFSLEKFKANDGSSSRGTDSRDSERERRRRLKEQEEKERDRRLKERELYELKKARELLDEERSRLQEKELPPIKPPRPTSTTSVPNTTSVPPAESSNNNNSSNKYDWFEFFLNCGVDVSNCQRYTINFDREQLTEDMMPDINNSMLRTLGLREGDIVRVMKHLDKKFGRENIASIPTNATGNMFSQPDGSLNVATSPETSLPQQLLPQTTSPAQTAPSTSAETDDAWTVKPASKSESNLLSKKSEFTGSMQDLLDLQPLEPKKAAASTPEPNLKDLEPVKTGGTTVPAAPVSSAPVSSAPAPLDPFKTGGNNILPLSTGFVMMPMITGGDMLPMQRTGGFVVPQTTFGMQSQVTGGILPVQKTGNGLIPISNTGGAMMPQTTFGAAATVLPLQKTGGGLIPIATTGGAQFPQTSFNVQGQQQLPTGSILPVQKTANGLISANTGVSMPTVQRTGGTMIPQTSFGVSQQLTGGAMMTQPQNTGSAMMPQTSFNAVPQITGGAMMPQTSFNALPQVTGGAMMPLQRTGGALNTFNTGGAMIPQTSFSSQAQNTGGFRPQSQFGLTLQKTGGIAPLNQNQFTGGAMNTLSTGGVLQQQQPQTMNTFNTGGVMQELQMMTTFNTGGAMQQPQMMNTFNTDGIMQQPQMMNTFNTGGAMQQPQQQALQNQPTGFGFGNGPQQSRQANIFNATASNPFGF
# partner: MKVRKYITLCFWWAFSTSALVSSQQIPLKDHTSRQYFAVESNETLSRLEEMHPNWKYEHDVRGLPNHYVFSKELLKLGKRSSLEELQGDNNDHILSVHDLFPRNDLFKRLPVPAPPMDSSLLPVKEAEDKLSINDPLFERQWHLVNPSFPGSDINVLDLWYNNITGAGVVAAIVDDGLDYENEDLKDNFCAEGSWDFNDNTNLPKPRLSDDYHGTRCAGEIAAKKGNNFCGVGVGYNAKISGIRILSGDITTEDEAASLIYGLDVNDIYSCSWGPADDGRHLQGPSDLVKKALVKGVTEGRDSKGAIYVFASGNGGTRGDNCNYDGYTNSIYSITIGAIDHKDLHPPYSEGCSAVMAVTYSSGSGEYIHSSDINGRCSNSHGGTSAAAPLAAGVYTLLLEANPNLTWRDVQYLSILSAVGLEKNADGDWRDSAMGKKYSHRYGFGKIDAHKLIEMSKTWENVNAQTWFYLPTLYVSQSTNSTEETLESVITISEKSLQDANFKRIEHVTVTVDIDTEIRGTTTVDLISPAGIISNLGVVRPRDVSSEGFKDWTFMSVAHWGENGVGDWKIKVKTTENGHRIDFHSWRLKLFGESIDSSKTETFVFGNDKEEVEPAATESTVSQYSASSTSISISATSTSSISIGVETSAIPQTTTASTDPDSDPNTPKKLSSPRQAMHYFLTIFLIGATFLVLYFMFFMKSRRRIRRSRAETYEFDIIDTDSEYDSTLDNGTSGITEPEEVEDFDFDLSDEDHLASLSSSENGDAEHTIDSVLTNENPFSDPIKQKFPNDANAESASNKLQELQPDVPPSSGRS
# B2: Kexin (Saccharomyces cerevisiae), P13134 (parent)
# chain: B1 partner
# partner: B1 chain
# Variants of: B1
# Settings: with kex2_yeast KEX2, P13134
row,Variant,effect of a mutation on the interaction
1,F507A,disrupting interaction

# Variants of: B1
# Settings: with kex2_yeast KEX2, P13134
# Remark: another data set of the same source
row,Variant,effect of a mutation on the interaction
1,K525A,disrupting interaction

# Variants of: B1
# Settings: with kex2_yeast KEX2, P13134
# Remark: another data set of the same source
row,Variant,effect of a mutation on the interaction
1,K525A,decreasing interaction

# Variants of: B1
# Settings: with kex2_yeast KEX2, P13134
# Remark: another data set of the same source
row,Variant,effect of a mutation on the interaction
1,V529E,disrupting interaction

# Variants of: B1
# Settings: with kex2_yeast KEX2, P13134
# Remark: another data set of the same source
row,Variant,effect of a mutation on the interaction
1,V529E,decreasing interaction

# Variants of: B1
# Settings: with kex2_yeast KEX2, P13134
# Remark: another data set of the same source
row,Variant,effect of a mutation on the interaction
1,I531E,disrupting interaction

# Variants of: B2
# Settings: with sla1_yeast SLA1, P32790
row,Variant,effect of a mutation on the interaction
1,D781A,decreasing interaction

# Variants of: B2
# Settings: with sla1_yeast SLA1, P32790
# Remark: another data set of the same source
row,Variant,effect of a mutation on the interaction
1,F779A,disrupting interaction
